# From patent US20230266324A1 (Hoffmann-La Roche, published 2023)
# B1: CD80 (ligand, human, UniProt P33681 35-288, looked up)
# chain: VIHVTKEVKEVATLSCGHNVSVEELAQTRIYWQKEKKMVLTMMSGDMNIWPEYKNRTIFDITNNLSIVILALRPSDEGTYECVVLKYEKDAFKREHLAEVTLSVKADFPTPSISDFEIPTSNIRRIICSTSGGFPEPHLSWLENGEELNAINTTVSQDPETELYAVSSKLDFNMTTNHSFMCLIKYGHLRVNQTFNWNTTKQEHFPDNLLPSWAITLISVNGIFVICCLTYCFAPRCRERRRNERLRRESVRPV
# notes: whole, on cells; Endogenous CD80 on human DCs, seen by confocal imaging; also called B7-1; B7.1
# Molecular target: T1, PD-L1 (human, UniProt Q9NZQ7 19-290)
# T1 construct: whole, on cells; Endogenous PD-L1 on in vitro generated human DCs (iDCs, mDCs); also called B7-H1; B7-4
# Experiment: confocal imaging of co-localization on the surface of human mDCs
# T1 sequence (Q9NZQ7 19-290): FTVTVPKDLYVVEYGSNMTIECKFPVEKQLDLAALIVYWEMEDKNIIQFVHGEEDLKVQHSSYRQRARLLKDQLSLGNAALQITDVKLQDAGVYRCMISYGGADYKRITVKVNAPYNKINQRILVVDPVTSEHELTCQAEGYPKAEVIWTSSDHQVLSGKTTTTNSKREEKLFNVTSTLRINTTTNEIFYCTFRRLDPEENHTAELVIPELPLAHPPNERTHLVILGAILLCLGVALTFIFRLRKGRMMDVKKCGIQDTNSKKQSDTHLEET
binder,measurement,value
B1,binding result,binds
